Experiments:
Test in all cases: flow, COS cells
ICAM-1 E59/Q = ICAM-1 E59/Q (human, UniProt P05362)
ICAM-1 Q1T/KA = ICAM-1 Q1T/KA (human, UniProt P05362)
ICAM-1 N156/E = ICAM-1 N156/E (human, UniProt P05362)
ICAM-1 E34/A = ICAM-1 E34/A (human, UniProt P05362)
ICAM-1 Y52/FA = ICAM-1 Y52/FA (human, UniProt P05362)
ICAM-1 E90/K = ICAM-1 E90/K (human, UniProt P05362)
ICAM-1 S3/T = ICAM-1 S3/T (human, UniProt P05362)
ICAM-1 D26QPK/ALPE = ICAM-1 D26QPK/ALPE (human, UniProt P05362)
ICAM-1 K128/R = ICAM-1 K128/R (human, UniProt P05362)
ICAM-1 K8/E = ICAM-1 K8/E (human, UniProt P05362)
ICAM-1 G101K/AN = ICAM-1 G101K/AN (human, UniProt P05362)
ICAM-1 D71/E = ICAM-1 D71/E (human, UniProt P05362)
ICAM-1 R13/E = ICAM-1 R13/E (human, UniProt P05362)
ICAM-1 E254DE/KEK = ICAM-1 E254DE/KEK (human, UniProt P05362)
ICAM-1 R166PQ/EPA = ICAM-1 R166PQ/EPA (human, UniProt P05362)
ICAM-1 N118/Q = ICAM-1 N118/Q (human, UniProt P05362)
ICAM-1 V4/G = ICAM-1 V4/G (human, UniProt P05362)
ICAM-1 N68/K = ICAM-1 N68/K (human, UniProt P05362)
ICAM-1 N240DS/KNA = ICAM-1 N240DS/KNA (human, UniProt P05362)
ICAM-1 M64/I = ICAM-1 M64/I (human, UniProt P05362)
ICAM-1 Q1/E = ICAM-1 Q1/E (human, UniProt P05362)
ICAM-1 D60S/KL = ICAM-1 D60S/KL (human, UniProt P05362)
ICAM-1 Q73/H = ICAM-1 Q73/H (human, UniProt P05362)
ICAM-1 Q73/T = ICAM-1 Q73/T (human, UniProt P05362)
ICAM-1 T20CS/ACT = ICAM-1 T20CS/ACT (human, UniProt P05362)
ICAM-1 N48/H = ICAM-1 N48/H (human, UniProt P05362)
ICAM-1 N56V/HM = ICAM-1 N56V/HM (human, UniProt P05362)
ICAM-1 D60/K = ICAM-1 D60/K (human, UniProt P05362)
[1] = target: ICAM-1 A115N/SV (printed A155N/SV at paragraph 410) (human) (UniProt P05362)
ICAM-1 T75/A = ICAM-1 T75/A (human, UniProt P05362)
ICAM-1 Q58EDS/AKDI = ICAM-1 Q58EDS/AKDI (human, UniProt P05362)
ICAM-1 K77T/ES = ICAM-1 K77T/ES (human, UniProt P05362)
ICAM-1 Q58/H = ICAM-1 Q58/H (human, UniProt P05362)
ICAM-1 E90/Q = ICAM-1 E90/Q (human, UniProt P05362)
ICAM-1 L91/A = ICAM-1 L91/A (human, UniProt P05362)
ICAM-1 D71/N = ICAM-1 D71/N (human, UniProt P05362)
ICAM-1 R13/K = ICAM-1 R13/K (human, UniProt P05362)
ICAM-1 S5/T (human) = ICAM-1 S5/T (human) (UniProt P05362)
ICAM-1 D213GL/HGV = ICAM-1 D213GL/HGV (human, UniProt P05362)
ICAM-1 K39KE/ERQ = ICAM-1 K39KE/ERQ (human, UniProt P05362)
ICAM-1 E111GGA/KAGS = ICAM-1 E111GGA/KAGS (human, UniProt P05362)
ICAM-1 S74/A = ICAM-1 S74/A (human, UniProt P05362)
ICAM-1 R49KV/EKL = ICAM-1 R49KV/EKL (human, UniProt P05362)
ICAM-1 A189T/SI = ICAM-1 A189T/SI (human, UniProt P05362)
ICAM-1 R149RD/EEG = ICAM-1 R149RD/EEG (human, UniProt P05362)
ICAM-1 R125/E = ICAM-1 R125/E (human, UniProt P05362)
ICAM-1 H152HGA/EEGS = ICAM-1 H152HGA/EEGS (human, UniProt P05362)
ICAM-1 A178/G = ICAM-1 A178/G (human, UniProt P05362)
ICAM-1 D203TQ/TAD = ICAM-1 D203TQ/TAD (human, UniProt P05362)
ICAM-1 N103/K = ICAM-1 N103/K (human, UniProt P05362)
ICAM-1 R13G/EA = ICAM-1 R13G/EA (human, UniProt P05362)

SLFI % WT (ICAM-1 E59/Q): 195 % WT | SLFI % WT (ICAM-1 Q1T/KA): 230 % WT | SLFI % WT (ICAM-1 N156/E): 182 % WT | SLFI % WT (ICAM-1 E34/A): 132 % WT | SLFI % WT (ICAM-1 Y52/FA): 100 % WT | SLFI % WT (ICAM-1 E90/K): 29 % WT | SLFI % WT (ICAM-1 S3/T): 224 % WT | SLFI % WT (ICAM-1 D26QPK/ALPE): 126 % WT | SLFI % WT (ICAM-1 K128/R): 190 % WT | SLFI % WT (ICAM-1 K8/E): 111 % WT | SLFI % WT (ICAM-1 G101K/AN): 142 % WT | SLFI % WT (ICAM-1 D71/E): 124 % WT | SLFI % WT (ICAM-1 R13/E): 202 % WT | SLFI % WT (ICAM-1 E254DE/KEK): 180 % WT | SLFI % WT (ICAM-1 R166PQ/EPA): 94 % WT | SLFI % WT (ICAM-1 N118/Q): 139 % WT | SLFI % WT (ICAM-1 V4/G): 111 % WT | SLFI % WT (ICAM-1 N68/K): 153 % WT | SLFI % WT (ICAM-1 N240DS/KNA): 142 % WT | SLFI % WT (ICAM-1 M64/I): 183 % WT | SLFI % WT (ICAM-1 Q1/E): 135 % WT | SLFI % WT (ICAM-1 D60S/KL): 105 % WT | SLFI % WT (ICAM-1 Q73/H): 139 % WT | SLFI % WT (ICAM-1 Q73/T): 218 % WT | SLFI % WT (ICAM-1 T20CS/ACT): 148 % WT | SLFI % WT (ICAM-1 N48/H): 164 % WT | SLFI % WT (ICAM-1 N56V/HM): 121 % WT | SLFI % WT (ICAM-1 D60/K): 89 % WT | SLFI % WT [1]: 60 % WT | SLFI % WT (ICAM-1 T75/A): 153 % WT | SLFI % WT (ICAM-1 Q58EDS/AKDI): 98 % WT | SLFI % WT (ICAM-1 K77T/ES): 151 % WT | SLFI % WT (ICAM-1 Q58/H): 135 % WT | SLFI % WT (ICAM-1 E90/Q): 152 % WT | SLFI % WT (ICAM-1 L91/A): 15 % WT | SLFI % WT (ICAM-1 D71/N): 109 % WT | SLFI % WT (ICAM-1 R13/K): 189 % WT | SLFI % WT (ICAM-1 S5/T (human)): 251 % WT | SLFI % WT (ICAM-1 D213GL/HGV): 128 % WT | SLFI % WT (ICAM-1 K39KE/ERQ): 84 % WT | SLFI % WT (ICAM-1 E111GGA/KAGS): 122 % WT | SLFI % WT (ICAM-1 S74/A): 129 % WT | SLFI % WT (ICAM-1 R49KV/EKL): 233 % WT | SLFI % WT (ICAM-1 A189T/SI): 138 % WT | SLFI % WT (ICAM-1 R149RD/EEG): 159 % WT | SLFI % WT (ICAM-1 R125/E): 145 % WT | SLFI % WT (ICAM-1 H152HGA/EEGS): 94 % WT | SLFI % WT (ICAM-1 A178/G): 304 % WT | SLFI % WT (ICAM-1 D203TQ/TAD): 125 % WT | SLFI % WT (ICAM-1 N103/K): 91 % WT | SLFI % WT (ICAM-1 R13G/EA): 132 % WT
Substance: monoclonal antibody CL203

Reference: patent US20090035321A1, “Intercellular adhesion molecules and their binding ligands” (Boehringer Ingelheim Pharmaceuticals, Inc., published 2009)
